Source: paper PMC4367193 (Biochemistry, 2009)

Legend:
Aβ42WT [1] = target: T1, Aβ42WT (Homo sapiens, UniProt P05067); assay type: biochemical; settings: 37°C
Aβ42WT [2] = target: T1, Aβ42WT; assay: Circular dichroism spectroscopy, Aβ42WT β-sheet formation; assay type: biochemical
Aβ [3] = assay type: binding, human; settings: soluble cortical homogenate, polyclonal anti-MBP IgG, Fig. 1D
Aβ42WT [4] = target: T1, Aβ42WT; assay: Surface plasmon resonance, binding to immobilised Aβ42WT
Aβ42WT [5] = target: T1, Aβ42WT; assay: Thioflavin T fluorescence assay, Aβ42WT fibril formation; assay type: biochemical; settings: Aβ42 12.5 μM, MBP 1.56 μM, 37°C, 150 mM NaCl; triplicate
Aβ [6] = assay type: binding, 5xFAD mouse; settings: soluble cortical homogenate, polyclonal anti-MBP IgG, Fig. 1D
Aβ40DI [7] = settings: previous study; ref [25] Hoos et al. 2007; cited from earlier work
Aβ42WT [8] = target: T1, Aβ42WT; assay: Attenuated total reflection infrared spectroscopy, Aβ42WT β-sheet formation; assay type: biochemical; settings: Aβ42 50 μM in PBS, MBP 6.25 μM, 37°C, 24 h; second-derivative ATR-IR
Aβ40WT = assay: Surface plasmon resonance, binding to Aβ40WT; settings: ECP negative control; SPR
MBP/Aβ42WT interaction = assay: Competitive co-immunoprecipitation, binding of Aβ42WT to MBP; design: species or system human; settings: data not shown
Aβ40DI [9] = assay: Surface plasmon resonance, binding to Aβ40DI; settings: ECP negative control; SPR

T1 sequence (P05067 672-713 limits assumed): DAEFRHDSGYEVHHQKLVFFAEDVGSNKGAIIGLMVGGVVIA

Aβ42WT: wild-type Aβ42 peptide, synthesized by solid-phase Fmoc chemistry
Length of oligomeric structures (Aβ42WT [1]; Aβ42WT alone, 6 h): up to 40 nm | Average height of fibrillar structures (Aβ42WT [1]; Aβ42WT alone, 24 h): over 4 nm | Time at which β-sheet formation begins to plateau (CD, 215 nm) (Aβ42WT [2]; Aβ42WT alone 50 μM, 37°C, 11 mM NaCl, results section): 24 h

B1: MBP: Purified human MBP (purchased from Chemicon International) (protein, UniProt P02686 1-304, looked up)
Myelin basic protein: MGNHAGKRELNAEKASTNSETNRGESEKKRNLGELSRTTSEDNEVFGEADANQNNGTSSQDTAVTDSKRTADPKNAWQDAHPADPGSRPHLIRLFSRDAPGREDNTFKDRPSESDELQTIQEDSAATSESLDVMASQKRPSQRHGSKYLATASTMDHARHGFLPRHRDTGILDSIGRFFGGDRGAPKRGSGKDSHHPARTAHYGSLPQKSHGRTQDENPVVHFFKNIVTPRTPPPSQGKGRGLSLSRFSWGAEGQRPGFGYGGRASDYKSAHKGFKGVDAQGTLSKIFKLGGRDSRSGSPMARR
Interaction of MBP with Aβ in human AD brain homogenate (Aβ [3]): MBP can interact with Aβ peptides | KD with Aβ42WT compared with Aβ40DI (Aβ42WT [4]; calculated KD between MBP and Aβ42WT versus affinity between MBP and Aβ40DI (ref [25])): comparable to the affinity between MBP and Aβ40DI | KD with Aβ42WT compared with Aβ40WT (Aβ42WT [4]; calculated KD between MBP and Aβ42WT versus that between MBP and Aβ40WT (ref [25])): stronger than that between MBP and Aβ40WT | Oligomeric structures at 6 h in the presence of MBP (Aβ42WT [1]; 6 h, AFM and TEM): marked reduction | Fibrils at 24 h in the presence of MBP (Aβ42WT [1]; 24 h, TEM): noticeably absent | Thioflavin-T fluorescence in samples containing Aβ42WT and MBP (Aβ42WT [5]): lack of thioflavin-T fluorescence | Interaction of MBP with Aβ in 5xFAD mouse brain homogenate (Aβ [6]): MBP can interact with Aβ peptides | Absolute CD ellipticity at 215 nm with MBP (Aβ42WT [2]; MBP alone and Aβ42WT (50 μM) with MBP (6.25 μM), 37°C, 0-36 h): remained low and decreased somewhat over the course of incubation | Conformation of MBP alone by CD (Aβ42WT [2]; MBP alone, throughout the time-course, data not shown): characteristic random-coil conformation | Inhibition of fibrillar assembly of Aβ40DI (Aβ40DI [7]): effectively inhibits the fibrillar assembly of Aβ40DI | β-turn peaks at 1681 and 1675 cm^−1 on addition of MBP (Aβ42WT [8]): remained unchanged even with the addition of MBP

B2: ECP: Eosinophil cationic protein, very similar charge and molecular mass compared to MBP, negative control (protein, UniProt P12724 28-160, looked up)
Eosinophil cationic protein: RPPQFTRAQWFAIQHISLNPPRCTIAMRAINNYRWRCKNQNTFLRTTFANVVNVCGNQSIRCPHNRTLNNCHRSRFRVPLLHCDLINPGAQNISNCTYADRPGRRFYVVACDNRDPRDSPRYPVVPVHLDTTI
Detectable binding to Aβ42WT ligand surface (Aβ42WT [4]; concentrations up to 32-fold greater than MBP, SPR): No binding could be detected | Binding affinity (KD) for Aβ40WT, ECP (Aβ40WT): not detected | Competition of ECP with MBP for binding to Aβ42 (MBP/Aβ42WT interaction): did not compete for MBP binding to Aβ42 | Binding affinity (KD) for Aβ40DI, ECP (Aβ40DI [9]): not detected
